Measurements from publication PMC5835332.

Biological target: actin from bovine muscle, monomerized (G-actin), labelled with NT-647 dye (bovine) (UniProt P68138)
Assay: MST

Substance | Kd [nM]
F3_(P97-232), recombinant fragment of the P97 cilium adhesin (amino acids 768-938) (domain or fragment) | 1790
F1_(P97-232), recombinant fragment of the P97 cilium adhesin (amino acids 106-758) (domain or fragment) | 34.2
